{
  "source": "paper PMC4641746",
  "about": "(Cell, 2015)",
  "key": {"[1]": {"target": "Y46K/V66D mutant of WT BanLec (recombinant, His-tagged) (Musa acuminata)", "test": "15N NMR spin relaxation"}, "[2]": {"target": "Y46K/V66D mutant of H84T BanLec (recombinant, His-tagged) (Musa acuminata)", "test": "15N NMR spin relaxation"}, "[3]": {"target": "T1, BanLec (banana lectin), recombinant His-tagged WT (Musa acuminata, UniProt O22321, H84T)", "T1 sequence (O22321 1-141 H84T)": "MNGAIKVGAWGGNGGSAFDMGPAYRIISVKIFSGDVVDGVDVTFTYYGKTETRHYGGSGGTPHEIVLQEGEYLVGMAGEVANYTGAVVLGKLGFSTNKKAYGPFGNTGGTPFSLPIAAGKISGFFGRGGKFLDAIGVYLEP", "test": "isothermal titration calorimetry", "assay_type": "binding", "details": "dimannoside linkage not printed in main text"}},
  "data": [
    {"substance": "Y46K/V66D mutant of WT BanLec (recombinant, His-tagged) (natural protein)", "values": [
      {"measurement": "stoichiometry N", "setting": "[1]", "result": 2}
    ]},
    {"substance": "Y46K/V66D mutant of H84T BanLec (recombinant, His-tagged) (natural protein)", "values": [
      {"measurement": "stoichiometry N", "setting": "[2]", "result": 2}
    ]},
    {"substance": "dimannoside [M2]", "values": [
      {"measurement": "Ka", "setting": "[3]", "result": 227}
    ]}
  ]
}
